From US20260242432A1 (NUVIG THERAPEUTICS, published 2026)

What was measured:
[1] = molecular target: T1, mouse FcRn (mouse, UniProt Q61559 22-297; P01887 21-119, limits assumed); assay: SPR, Fc loaded on anti-human Fc biosensors
T1 construct: also called mFcRn; murine FcRn
T1 sequence (looked up) 1: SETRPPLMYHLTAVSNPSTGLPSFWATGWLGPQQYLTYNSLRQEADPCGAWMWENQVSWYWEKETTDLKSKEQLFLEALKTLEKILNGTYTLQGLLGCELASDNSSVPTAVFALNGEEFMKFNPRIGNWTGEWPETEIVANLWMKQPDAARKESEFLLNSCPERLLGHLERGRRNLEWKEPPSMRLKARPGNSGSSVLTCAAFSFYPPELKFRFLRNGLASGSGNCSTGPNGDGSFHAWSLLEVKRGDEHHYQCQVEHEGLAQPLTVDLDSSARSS
T1 sequence (looked up) 2: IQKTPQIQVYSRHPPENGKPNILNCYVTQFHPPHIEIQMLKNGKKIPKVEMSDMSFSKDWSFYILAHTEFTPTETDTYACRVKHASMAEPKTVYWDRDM
Experimental: (§1) Dissociation constants (KDs) are plotted as μM (solid bars) and association constants (KAs) are plotted as Ms⁻¹ (hatched bars). (FIG. 9E and FIG. 9F) Female WT C57BL/6 (FIG. 9E) and humanized homozygous FcRn (Tg32) mice (FIG. 9F) were administered one dose of 50 mg/kg or 100 mg/kg of F241A/B4ST6 Fc or 10 mg/kg of Fc^Abdeg and serum mouse IgG was measured via ELISA out to day 7 post-dose. (FIG. 9G) SIGN-R1^{-/-} and hDC-SIGN⁺ murine bone marrow-derived macrophages (BMDMs) had their Fcγ receptors blocked then were incubated with PBS, F241A/B4ST6 Fc, or Fc^Abdeg and binding was detected by FACS using an anti-human IgG Fc antibody. […] (FIG. 911-9J) Female WT C57BL/6 mice (n=5 per group) and female and male SIGN-R1^{-/-} mice (n=5 per group) were administered arthritogenic K/BxN serum alongside PBS, 1 g/kg IVIG, 50 mg/kg F241A/B4ST6 Fc, or 10 mg/kg Fc^Abdeg in a preventative manner, and joint swelling was clinically scored for 10 days. […] Statistical significance was assessed using an ordinary one-way ANOVA with Tukey's multiple comparisons.
(§2) At the outset, the interactions between WT Fc, F241A/B4ST6 Fc, and Fc^Abdeg were tested with mouse and human FcRn using surface plasmon resonance (SPR). […] C57BL/6 and hFcRn (Tg32) mice were given a single intravenous injection of F241A/B4ST6 Fc or Fc^Abdeg and, following dosing, serum mIgG was determined via ELISA.

[2] = molecular target: T2, human FcRn (human, UniProt P55899 24-297; P61769 21-119, limits assumed); assay: SPR, Fc loaded on anti-human Fc biosensors
T2 construct: also called hFcRn
Experimental: as §1, §2

[3] = molecular target: T1, mouse FcRn; assay: not stated in the sentence (apparently the SPR of Example 7)
[4] = molecular target: T1, mouse FcRn; assay: SPR; Fc loaded on anti-human Fc biosensors, mouse FcRn in solution
Experimental: as §1, §2

[5] = molecular target: T2, human FcRn; assay: SPR; Fc loaded on anti-human Fc biosensors, human FcRn in solution
Experimental: as §1, §2

[6] = molecular target: T3, human Dendritic Cell-Specific ICAM-3-Grabbing Non-Integrin (DC-SIGN) on hDC-SIGN^+/SIGN-R1^-/- murine bone … (human, UniProt Q9NNX6 1-404); assay: flow cytometry on hDC-SIGN^+/SIGN-R1^-/- BMDMs, Fc gamma receptors blocked, detection with anti-hIgG Fc antibody
T3 construct: whole, on cells; also called hCD209
T3 sequence (looked up): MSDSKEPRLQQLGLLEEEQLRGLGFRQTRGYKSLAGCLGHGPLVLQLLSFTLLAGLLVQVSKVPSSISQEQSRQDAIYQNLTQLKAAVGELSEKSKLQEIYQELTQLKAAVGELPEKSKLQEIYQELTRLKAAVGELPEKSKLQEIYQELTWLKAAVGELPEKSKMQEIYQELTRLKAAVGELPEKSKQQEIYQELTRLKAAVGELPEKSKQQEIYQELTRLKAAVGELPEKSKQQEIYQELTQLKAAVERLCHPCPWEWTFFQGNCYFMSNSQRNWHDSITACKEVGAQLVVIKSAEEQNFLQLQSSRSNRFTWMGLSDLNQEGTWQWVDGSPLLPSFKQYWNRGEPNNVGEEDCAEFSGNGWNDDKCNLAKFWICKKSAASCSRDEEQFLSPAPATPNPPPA
Experimental: Both IVIG and sialylated IgG Fc require the murine C-type lectin Specific ICAM3-Grabbing Non-Integrin Related-1 (SIGN-R1) to mediate anti-inflammatory activity in vivo. This requirement can be circumvented by introduction of SIGN-R1 human orthologue, Dendritic Cell-Specific ICAM-3-Grabbing Non-Integrin (DC-SIGN). Therefore, the ability of both F241A/B4ST6 Fc and Fc^Abdeg to bind DC-SIGN was examined via a cell-binding assay. […] Cells were cultured overnight in high glucose DMEM medium supplemented with 1× antibiotic-antimycotic and 1×FBS at 37° C. and 5% CO₂. The next day, supernatants were discarded and cells were detached with enzyme-free dissociation buffer. Suspended cells were collected and centrifuged for 10 minutes at 400 rpm. The pellet was resuspended and washed in binding buffer (1×TBS, […], 2.5% FBS and 0.05% sodium azide). Fc receptors were blocked by adding anti-mouse CD16/32 antibody clone 93. After blocking, cells were washed in binding buffer, after which 100 μg/mL of Fc^Abdeg and F241A/B4ST6 Fc were added to the cells, which were then incubated for 1 hour on ice. […] BMDMs were analyzed by flow cytometry to detect surface-bound IgG. No bound IgG were detected on the SIGN-R1^{-/-} BMDMs incubated with F241A/B4ST6 Fc or Fc^Abdeg (FIG. 9G). However, IgG was detected on hDC-SIGN⁺/SIGN-R1^{-/-} BMDMs treated with F241A/B4ST6 Fc, but not with Fc^Abdeg (FIG. 9G).

fold lower KD than F241A/B4ST6 Fc [1]: 267 fold | fold lower KD than F241A/B4ST6 Fc [2]: 39 fold | fold enhanced affinity compared to human FcRn [3]: 10 fold | Kd [4]: 0.27 nM | Kd [5]: 5.2 nM | binding result [6]: no binding (tested: 100 µg/mL)
B1: Fc^Abdeg polypeptide (efgartigimod), human IgG1 Fc with M252Y/S254T/T256E/H433K/N434F (other)
chain: DKTHTCPPCPAPELLGGPSVFLFPPKPKDTLYITREPEVTCVVVDVSHEDPEVKFNWYVDGVEVHNAKTKPREEQYNSTYRVVSVLTVLHQDWLNGKEYKCKVSNKALPAPIEKTISKAKGQPREPQVYTLPPSRDELTKNQVSLTCLVKGFYPSDIAVEWESNGQPENNYKTTPPVLDSDGSFFLYSKLTVDKSRWQQGNVFSCSVMHEALKFHYTQKSLSLSPG
notes: also called EFG Fc
